Experimental data published in patent US20240165140A1, “MEDICATION FOR INHIBITING DNA-PKCS” (TSINGHUA UNIVERSITY, priority 2017, published 2024).
“Also recorded” adds a separate entry of the source.

How the values were obtained:
DNA-PKcs = biological target: T1, DNA-PKcs (Homo sapiens, UniProt P78527); assay: Endostatin-coupled CNBr-activated Sepharose 4B pull-down and co-immunoprecipitation; assay type: binding
T1 construct: incubated with A549 cell lysate; endogenous in cells; host or cells: A549 and H1299 cells (lysates)
Procedure: CNBr-activated Sepharose 4B used in this example was purchased from Sigma. First, according to the instructions, endostatin and bovine serum albumin (BSA) were coupled to CNBr-activated Sepharose 4B, respectively, and incubated with A549 cell lysate. The pull down proteins were subjected to SDS-PAGE electrophoresis and stained with Coomassie blue. […] To further verify the interaction between the two, H1299 and A549 cells were incubated with Endostatin for 2 hours for endocytosis. The cell lysate was mixed with the antibody of DNA-PKcs, and then co-incubated with protein A/G beads.

γH2AX = assay: Immunoblotting of γH2AX level (DSBs damage repair); assay type: cell-based; details: H1299 and A549 cells; Endostatin 10 μg/ml pretreatment 1 h, Etoposide 10 μM 1 hour, then fresh medium
Source text: In this example, the level of γH2AX was used to reflect the degree of DSBs damage. Tumor cells (including H1299 and A549 cells) were divided into eight treatment groups.

[1] = tested on: tumor cells with normal P53 function (H1299-P53 and A549-NC); assay: CCK8 cell activity, tumor cells with normal P53 function; assay type: cell-based
Procedure: First, a lentivirus kit (purchased from Shanghai Genepharma) was used to construct a P53 stably overexpressing H1299 cell line (H1299-P53) and a P53 stably knockdown A549 cell line […]. The P53 sequence targeted by the shRNA used to knock down P53 in A549 cells was 5′-[…]-3′ (SEQ ID NO: 4). Virus transfection and the construction of stable cell lines were performed according to the kit instructions. […] After treatment for 12 hours, the drug-containing medium was replaced with a normal medium and the cells were further cultured for 72 hours. Cell activity was measured according to the instructions of the CCK8 kit (Dojindo, Tokyo, Japan).
In this example, another chemical drug, Doxorubicin, was used to verify that Endostatin can enhance the sensitivity of P53-deficient tumor cells to chemotherapy. Operation process was the same as in Example 5.

[2] = tested on: P53-deficient tumor cells (H1299-NC, A549-shP53); assay: PI staining apoptosis by flow cytometry, P53-deficient tumor cells; assay type: cell-based; details: Endostatin 10 μg/ml added 1 h before Etoposide 1 μM, 16 h
Procedure: (§1) The apoptotic cells and adherent cells floating in the culture medium were collected, and the cells were suspended in 500 μl PBS containing 0.05 mg/ml propidium iodide (PI), stained for 15 min at room temperature in dark, and detected by flow cytometry (BD FACS Calibur). PI-positive cells represent apoptotic cells.

[3] = tested on: tumor cells with normal P53 function (H1299-P53, A549-NC); assay: PI staining apoptosis by flow cytometry, tumor cells with normal P53 function; assay type: cell-based; details: Endostatin 10 μg/ml added 1 h before Etoposide 1 μM, 16 h
Procedure: as §1

[4] = tested on: DNA-PKcs, PARP, γH2AX and Caspase-3 signaling pathways; assay: Immunoblotting of DNA damage and apoptotic pathway, P53-deficient tumor cells; assay type: cell-based; details: H1299-NC, A549-shP53; Endostatin 10 μg/ml, Etoposide 10 μM 16 h, z-DEVD-fmk 10 μM; Endostatin and z-DEVD-fmk added 1 h before Etoposide
Source text: In this example, tumor cells (H1299-NC, H1299-P53, A549-NC, A549-shP53) were divided into six treatment groups.

H1299-NC tumor = assay: Subcutaneous tumor growth in nude mice, H1299-NC; assay type: in vivo; details: Day 19, compared with control group, Endostatin 20 mg/kg i.p. once a day, Etoposide 2 mg/kg i.p. once every two days
Procedure: (§2) Tumor-bearing nude mice were randomly divided into four groups with 6 to 8 animals for each group, and different drug treatments were performed. […] Tumor volume was measured every other day. 2 to 4 weeks after administration, the mice were sacrificed and the tumor tissue was removed for further use.

[5] = tested on: PCNA and DNA-PKcs protein in H1299-NC and A549-shP53 tumor tissues; assay: Immunofluorescence of PCNA and DNA-PKcs in tumor tissue, P53-deficient mouse tumor model; assay type: in vivo, nude mice; details: H1299-NC and A549-shP53 tumors of Example 12; quantitative immunofluorescence
Procedure: as §2
(§3) The tumor tissue removed in Example 12 was fixed and embedded, and then sectioned. PCNA (a marker molecule indicating the vigorous proliferation status of tumor cells) and DNA-PKcs protein in tumor tissues were stained by immunofluorescence technique, and were observed and imaged with a laser confocal microscope (Nikon A1). The experimental results are shown in FIG. 14A-14D, in which blue represents the nucleus of DAPI-stained cells, green represents the DNA-PKcs protein, and red represents the PCNA protein. Taking the H1299-NC tumor tissue shown in FIG. 14A as an example, the first column on the left represents DNA-PKcs single staining, and the green area represents the DNA-PKcs protein expression level. The second column on the left represents the results of DNA-PKcs (green) merged with nucleus (blue), and the overlapping part is shown in cyan. The third column on the left represents PCNA single staining, and the red area represents the PCNA protein expression level, indicating the strength of tumor cell proliferation. […]

[6] = tested on: PCNA and DNA-PKcs protein in H1299-P53 and A549-NC tumor tissues; assay: Immunofluorescence of PCNA and DNA-PKcs in tumor tissue, mouse tumor model with normal P53 function; assay type: in vivo, nude mice; details: H1299-P53 and A549-NC tumors of Example 12; quantitative immunofluorescence
Procedure: as §2, §3

T1 sequence (P78527 whole entry): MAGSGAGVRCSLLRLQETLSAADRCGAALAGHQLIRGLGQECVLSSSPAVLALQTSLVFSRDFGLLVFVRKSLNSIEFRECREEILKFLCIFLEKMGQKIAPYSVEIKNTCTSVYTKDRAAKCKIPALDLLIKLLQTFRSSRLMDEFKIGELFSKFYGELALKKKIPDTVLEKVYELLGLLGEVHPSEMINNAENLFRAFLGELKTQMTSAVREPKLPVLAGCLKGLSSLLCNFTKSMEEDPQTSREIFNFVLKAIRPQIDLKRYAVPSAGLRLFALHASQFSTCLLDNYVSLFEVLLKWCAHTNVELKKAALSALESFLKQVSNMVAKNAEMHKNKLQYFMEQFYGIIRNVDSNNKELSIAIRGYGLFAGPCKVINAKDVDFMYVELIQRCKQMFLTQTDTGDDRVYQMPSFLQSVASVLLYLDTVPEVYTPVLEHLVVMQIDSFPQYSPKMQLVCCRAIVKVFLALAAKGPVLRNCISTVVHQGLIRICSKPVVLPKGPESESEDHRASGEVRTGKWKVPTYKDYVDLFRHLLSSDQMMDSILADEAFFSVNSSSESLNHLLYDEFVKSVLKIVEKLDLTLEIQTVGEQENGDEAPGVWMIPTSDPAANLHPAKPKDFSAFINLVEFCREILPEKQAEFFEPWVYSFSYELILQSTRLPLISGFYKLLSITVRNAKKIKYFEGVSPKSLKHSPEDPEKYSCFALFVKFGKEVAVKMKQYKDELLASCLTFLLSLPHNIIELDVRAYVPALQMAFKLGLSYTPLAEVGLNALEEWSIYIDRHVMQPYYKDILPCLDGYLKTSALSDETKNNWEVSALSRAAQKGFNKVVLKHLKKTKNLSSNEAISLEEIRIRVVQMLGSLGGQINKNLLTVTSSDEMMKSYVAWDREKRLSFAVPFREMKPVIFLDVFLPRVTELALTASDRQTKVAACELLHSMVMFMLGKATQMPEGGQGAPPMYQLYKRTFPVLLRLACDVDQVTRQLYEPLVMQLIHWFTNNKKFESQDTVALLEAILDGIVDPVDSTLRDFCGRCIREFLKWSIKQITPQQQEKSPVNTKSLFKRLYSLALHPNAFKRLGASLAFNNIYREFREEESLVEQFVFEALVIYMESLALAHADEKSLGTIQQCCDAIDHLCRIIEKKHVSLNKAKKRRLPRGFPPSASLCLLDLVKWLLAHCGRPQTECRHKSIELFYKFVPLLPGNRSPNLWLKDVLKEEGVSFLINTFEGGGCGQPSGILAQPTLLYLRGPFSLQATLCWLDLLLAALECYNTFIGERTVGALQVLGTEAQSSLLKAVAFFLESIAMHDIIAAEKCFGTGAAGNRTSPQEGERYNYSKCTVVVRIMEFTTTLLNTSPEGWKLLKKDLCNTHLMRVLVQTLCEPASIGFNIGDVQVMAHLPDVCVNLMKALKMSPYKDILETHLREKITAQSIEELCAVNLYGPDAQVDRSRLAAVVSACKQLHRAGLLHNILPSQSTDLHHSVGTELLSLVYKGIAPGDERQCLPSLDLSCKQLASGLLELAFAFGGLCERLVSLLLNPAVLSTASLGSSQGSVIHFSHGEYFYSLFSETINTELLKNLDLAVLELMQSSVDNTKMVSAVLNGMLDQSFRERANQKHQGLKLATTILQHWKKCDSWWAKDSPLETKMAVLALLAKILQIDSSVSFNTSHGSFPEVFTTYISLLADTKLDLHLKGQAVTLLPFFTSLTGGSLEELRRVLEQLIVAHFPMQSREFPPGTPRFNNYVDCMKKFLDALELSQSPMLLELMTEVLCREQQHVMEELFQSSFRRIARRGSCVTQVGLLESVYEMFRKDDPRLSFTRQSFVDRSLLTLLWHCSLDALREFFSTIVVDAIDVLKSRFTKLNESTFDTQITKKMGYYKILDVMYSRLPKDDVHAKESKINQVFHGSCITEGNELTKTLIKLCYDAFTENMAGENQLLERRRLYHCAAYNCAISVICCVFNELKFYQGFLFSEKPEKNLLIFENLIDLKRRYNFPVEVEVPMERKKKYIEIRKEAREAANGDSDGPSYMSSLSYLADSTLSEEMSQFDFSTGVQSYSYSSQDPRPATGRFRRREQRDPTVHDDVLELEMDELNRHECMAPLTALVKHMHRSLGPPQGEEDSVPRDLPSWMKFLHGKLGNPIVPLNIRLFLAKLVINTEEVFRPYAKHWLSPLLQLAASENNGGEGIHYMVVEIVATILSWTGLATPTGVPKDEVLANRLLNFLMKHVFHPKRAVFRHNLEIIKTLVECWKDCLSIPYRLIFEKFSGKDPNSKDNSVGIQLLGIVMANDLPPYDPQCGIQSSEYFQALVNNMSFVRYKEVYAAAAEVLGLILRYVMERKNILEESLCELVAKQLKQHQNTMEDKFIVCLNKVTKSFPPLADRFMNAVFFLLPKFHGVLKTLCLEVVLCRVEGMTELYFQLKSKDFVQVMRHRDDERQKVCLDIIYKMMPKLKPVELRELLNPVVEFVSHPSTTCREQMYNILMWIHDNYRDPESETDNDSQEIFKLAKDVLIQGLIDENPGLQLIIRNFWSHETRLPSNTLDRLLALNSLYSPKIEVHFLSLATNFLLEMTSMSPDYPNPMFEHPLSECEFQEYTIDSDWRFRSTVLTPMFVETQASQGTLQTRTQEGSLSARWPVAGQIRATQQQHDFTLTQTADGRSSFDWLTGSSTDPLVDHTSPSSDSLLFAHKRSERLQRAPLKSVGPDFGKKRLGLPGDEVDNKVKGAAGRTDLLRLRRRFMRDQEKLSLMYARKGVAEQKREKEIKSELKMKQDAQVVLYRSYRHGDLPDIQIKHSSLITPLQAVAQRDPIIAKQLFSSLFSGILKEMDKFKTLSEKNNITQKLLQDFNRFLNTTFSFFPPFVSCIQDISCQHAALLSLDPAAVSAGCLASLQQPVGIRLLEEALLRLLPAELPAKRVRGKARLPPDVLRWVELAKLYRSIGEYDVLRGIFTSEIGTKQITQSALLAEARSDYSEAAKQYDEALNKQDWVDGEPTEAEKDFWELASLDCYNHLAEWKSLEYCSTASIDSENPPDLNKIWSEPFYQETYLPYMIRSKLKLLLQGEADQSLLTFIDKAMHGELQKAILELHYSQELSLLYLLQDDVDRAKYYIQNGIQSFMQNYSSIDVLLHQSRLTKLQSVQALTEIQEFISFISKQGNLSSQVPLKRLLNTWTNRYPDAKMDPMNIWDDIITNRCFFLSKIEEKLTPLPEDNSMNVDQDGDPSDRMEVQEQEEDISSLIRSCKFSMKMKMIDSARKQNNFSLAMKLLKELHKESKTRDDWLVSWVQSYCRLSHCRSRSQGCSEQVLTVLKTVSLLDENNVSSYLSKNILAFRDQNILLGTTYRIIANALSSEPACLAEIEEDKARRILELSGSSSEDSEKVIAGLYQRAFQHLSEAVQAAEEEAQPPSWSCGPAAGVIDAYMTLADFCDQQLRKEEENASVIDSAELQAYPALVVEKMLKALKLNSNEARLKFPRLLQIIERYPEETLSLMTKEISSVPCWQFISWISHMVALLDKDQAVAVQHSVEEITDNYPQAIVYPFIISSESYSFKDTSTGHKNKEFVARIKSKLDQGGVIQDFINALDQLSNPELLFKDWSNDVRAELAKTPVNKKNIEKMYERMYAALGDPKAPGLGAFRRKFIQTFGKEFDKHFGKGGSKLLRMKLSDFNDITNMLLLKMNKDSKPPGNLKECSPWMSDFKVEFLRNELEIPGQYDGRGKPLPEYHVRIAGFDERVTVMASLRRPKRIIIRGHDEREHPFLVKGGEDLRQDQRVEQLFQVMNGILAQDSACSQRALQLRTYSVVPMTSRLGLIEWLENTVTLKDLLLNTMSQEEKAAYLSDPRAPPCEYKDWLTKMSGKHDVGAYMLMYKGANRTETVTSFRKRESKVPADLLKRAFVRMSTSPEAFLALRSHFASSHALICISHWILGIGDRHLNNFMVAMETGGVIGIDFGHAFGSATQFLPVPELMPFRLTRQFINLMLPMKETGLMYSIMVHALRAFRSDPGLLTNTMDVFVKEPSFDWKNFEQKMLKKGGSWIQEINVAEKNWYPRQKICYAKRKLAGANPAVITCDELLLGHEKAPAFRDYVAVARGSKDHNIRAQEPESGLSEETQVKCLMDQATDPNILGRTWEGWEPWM

B1: Endostatin: recombinant natural human endostatin expressed by E. coli, from Protgen, SEQ ID NO: 2 (protein)
chain: MHSHRDFQPVLHLVALNSPLSGGMRGIRGADFQCFQQARAVGLAGTFRAFLSSRLQDLYSIVRRADRAAVPIVNLKDELLFPSWEALFSGSEGPLKPGARIFSFDGKDVLRHPTWPQKSVWHGSDPNGRRLTESYCETWRTEAPSATGQASSLLGGRLLGQSAASCHHAYIVLCIENSFMTASK
modifications: The amino acid sequence of natural human endostatin
DNA-PKcs; A549 cell lysate, BSA-coupled Sepharose as control
  Endostatin-binding protein identified by pull-down, SDS-PAGE and mass spectrometric analysis: DNA-PKcs was identified as a protein interacted with Endostatin
DNA-PKcs; H1299 and A549 cell lysates
  DNA-PKcs precipitated by Endostatin-coupled CNBr-activated Sepharose 4B (immunoblotting): can be precipitated by CNBr-activated Sepharose 4B coupled with Endostatin
DNA-PKcs; H1299 and A549 cells incubated with Endostatin for 2 hours
  Co-immunoprecipitation with antibody of DNA-PKcs: Endostatin could be co-precipitated by DNA-PKcs
γH2AX
  Reduction of γH2AX level (repair of DSBs damage) after Etoposide: delayed the reduction of γH2AX level
[1]; Endostatin 10 μg/ml pretreatment 1 h, Etoposide 0, 0.1, 1, 10 μM
  Effect on the inhibitory effect of Etoposide on cell activity: did not significantly enhance the inhibitory effect of Etoposide
[1]; Operation process as in Example 5, Doxorubicin instead of Etoposide
  Effect on the inhibitory effect of Doxorubicin on cell activity: did not significantly enhance the inhibitory effect of Doxorubicin
[2]
  Effect on ability of Etoposide to promote apoptosis (PI-positive cells): could enhance the ability of Etoposide to promote the apoptosis of tumor cells
[3]
  Effect on the pro-apoptotic effect of Etoposide (PI-positive cells): did not significantly enhance the pro-apoptotic effect of Etoposide
[4]
  DNA-PKcs, PARP, γH2AX and Caspase-3 signaling pathway levels: did not affect the above-mentioned signaling pathway levels
H1299-NC tumor
  tumor suppression rate: 19.6%
[5]
  Tumor cell proliferation (PCNA) and protein level of DNA-PKcs in tumor tissue: can attenuate tumor cell proliferation to a certain extent and reduce the protein level of DNA-PKcs
[6]
  Tumor cell proliferation (PCNA) and protein level of DNA-PKcs in tumor tissue: could reduce the proliferation of tumor cells and reduce the protein level of DNA-PKcs; also recorded: did not enhance the inhibitory effect of Etoposide on tumor proliferation and the effect of Etoposide on the protein levels of DNA-PKcs
